The test has as its target PKD2-mNeonGreen (PKD2-mNG) in cilia (Chlamydomonas). In words: stepwise photobleaching.

Consider “PKD2-mNeonGreen (PKD2-mNG) in cilia (domain or fragment)”, for which the photobleaching steps per particle was determined as 2.8 steps and the stoichiometry N – broadly, a count of units in the complex or per binding partner – was > 3.

Values taken from publication PMC7265326.
